Assay [1] deals with phosphorylated cytosolic domain of the TCR γ-chain (pCD3γCD) (UniProt P09693). Briefly: BLI. For orientation: BLI is a label-free optical method that tracks binding on a fibre tip over time.
In assay [2] the target is GST-pCD3γCD fusion protein (UniProt P09693). Briefly: ELISA. Background: ELISA stands for enzyme-linked immunosorbent assay.

This note sets out measurements from PMC4605427.

In the case of “ZAP-70 phenylalanine mutant Y315/Y319F, kinase-dead (FFDN) (from UniProt P43403 1-619) (enzyme)”, in assay [1], the KD2 (weak set), fold against its KD1 turned out to be 10 fold; the koff1, ratio against AADN and tSH2 worked out at 0.5 fold; the koff2 (weak set), fold against its koff1 stood at 20 fold; the kon1, fold against AADN and tSH2 was determined as 2 fold. Further, the kon2 (weak set), fold against its kon1 in assay [1] was determined as 2 fold. In addition, the fold concentration needed, against YY, to compete similarly in assay [2] is 3 fold.

In the case of “kinase-dead D461N mutant of ZAP-70 (YYDN) (from UniProt P43403 1-619) (enzyme)”, in assay [1], the KD2 (weak set), fold against its KD1 stood at 10 fold; the koff1, ratio against AADN and tSH2 is 0.5 fold; the koff2 (weak set), fold against its koff1 turned out to be 20 fold; the kon1, fold against AADN and tSH2 is 2 fold. In assay [1], this substance returned a kon2 (weak set), fold against its kon1 of 2 fold.

The term Kd denotes the free concentration of one partner at which half of the binding sites on the other are occupied at equilibrium, for simple one-to-one binding. A high value points to lower affinity. “recombinant tSH2 module of ZAP-70 (aa 1–256) (from UniProt P43403 1-256) (domain or fragment)” showed a dissociation constant Kd in assay [1] of 10 nM.
